Measurements reported in FireProtDB (doi:10.1021/bi035651x).
Several values for one entry are separate records, joined by “and”; a condition that tells them apart may be missing. Equal values may be shown once.

B1: Adenosine deaminase, P03958 (parent)
chain: MAQTPAFNKPKVELHVHLDGAIKPETILYFGKKRGIALPADTVEELRNIIGMDKPLSLPGFLAKFDYYMPVIAGCREAIKRIAYEFVEMKAKEGVVYVEVRYSPHLLANSKVDPMPWNQTEGDVTPDDVVDLVNQGLQEGEQAFGIKVRSILCCMRHQPSWSLEVLELCKKYNQKTVVAMDLAGDETIEGSSLFPGHVEAYEGAVKNGIHRTVHAGEVGSPEVVREAVDILKTERVGHGYHTIEDEALYNRLLKENMHFEVCPWSSYLTGAWDPKTTHAVVRFKNDKANYSLNTDDPLIFKSTLDTDYQMTKKDMGFTEEEFKRLNINAAKSSFLPEEEKKELLERLYREYQ

Variants of: B1
Conditions: Mus musculus; pH 7.4; 20 °C; Urea; NMR; Tris-HCl 20 mM; structure 2ADA; whole UniProt chain shown

Variant	ddG of mutation (higher = less stable)	denaturant m value	denaturant midpoint (higher = more stable)	unfolding free energy
W117F	-2.96 kcal/mol and -6.52 kcal/mol	1.31 kcal/mol/M and 1.96 kcal/mol/M	5.65 M and 5.59 M	7.4 kcal/mol and 11 kcal/mol
W161F	-8.7 kcal/mol and -5.98 kcal/mol	2.48 kcal/mol/M and 1.87 kcal/mol/M	5.3 M and 5.57 M	13.1 kcal/mol and 10.4 kcal/mol
W272F		1.05 kcal/mol/M and 2.25 kcal/mol/M	5.42 M and 5.58 M	5.69 kcal/mol and 12.6 kcal/mol
